Patent US20250361297A1 (ADAPTAM THERAPEUTICS S L, published 2025)

Assays:
[1] = molecular target: T1, truncated human Siglec-15 comprising only domain 2 (D2), expressed on HEK293T cells (human, UniProt Q6ZMC9 168-251, limits assumed); assay: flow cytometry on HEK293T cells expressing domain 2 only (FIG. 16)
T1 construct: also called domain 2-only human Siglec-15; Siglec-15 Domain 2 (D2) HEK293T cells
T1 sequence: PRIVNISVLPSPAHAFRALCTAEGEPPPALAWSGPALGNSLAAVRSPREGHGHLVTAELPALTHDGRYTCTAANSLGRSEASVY

[2] = molecular target: T2, human Siglec-15, full length, expressed on cells (human, UniProt Q6ZMC9 20-328); assay: IgG1 titration, flow cytometry on MOLM-13 human Siglec-15 cells
T2 construct: also called hS15; MOLM-13 Siglec-15 expressing cells
T2 sequence: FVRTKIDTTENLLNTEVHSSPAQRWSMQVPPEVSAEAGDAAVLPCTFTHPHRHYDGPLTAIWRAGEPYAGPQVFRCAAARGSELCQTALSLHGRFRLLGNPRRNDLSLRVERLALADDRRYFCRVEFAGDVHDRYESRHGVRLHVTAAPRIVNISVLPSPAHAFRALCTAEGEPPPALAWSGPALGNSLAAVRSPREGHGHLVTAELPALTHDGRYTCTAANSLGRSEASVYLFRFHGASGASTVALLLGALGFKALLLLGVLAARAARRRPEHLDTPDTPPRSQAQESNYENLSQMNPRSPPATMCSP
Experimental: Complementary to the ELISA, flow cytometry assays provided insight into the binding behavior of the antibodies on the cell surface. Here, titration of the antibodies began at the same concentration of 10 μg/ml, using MOLM-13 human Siglec-15 and MOLM-13 wild-type cells as a negative control, with detection performed using an anti-human Fc secondary antibody (FIG. 8B).
In the flow cytometry assay, MOLM-13 cells expressing human Siglec-15 and MOLM-13 wild-type cells (negative control) were incubated with titrated antibodies starting at 10 μg/ml. After incubation, cells were washed and incubated with an anti-human Fc-specific secondary antibody conjugated with a fluorescent marker. Flow cytometric analysis was conducted, and fluorescence intensity was used to calculate EC50 values, providing a quantitative assessment of the antibodies' cell surface binding efficacy.

[3] = molecular target: T3, mouse Siglec-15, full length, expressed on HEK293T cells (mouse); assay: IgG1 titration, flow cytometry on HEK293T cells expressing mouse Siglec-15
T3 construct: also called mS15; HEK293T cells expressing mouse Siglec-15
T3 chain: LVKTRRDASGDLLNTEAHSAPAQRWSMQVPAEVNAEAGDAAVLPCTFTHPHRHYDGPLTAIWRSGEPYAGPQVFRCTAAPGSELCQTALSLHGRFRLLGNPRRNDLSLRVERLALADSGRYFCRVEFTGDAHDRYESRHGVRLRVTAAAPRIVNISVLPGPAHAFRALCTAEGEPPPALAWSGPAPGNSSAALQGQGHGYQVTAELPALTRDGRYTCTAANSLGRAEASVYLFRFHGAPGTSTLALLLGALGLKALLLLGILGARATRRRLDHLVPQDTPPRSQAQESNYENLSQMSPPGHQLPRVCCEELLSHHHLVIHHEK
Experimental: The antibodies were titrated against HEK293T cells expressing mouse Siglec-15 or HEK293T cells expressing a truncated human Siglec-15 consisting solely of domain 2 (FIG. 9).
For the ELISA, antigens were immobilized on high-binding plates, and the full-length IgG1 anti-Siglec-15 antibodies were titrated beginning at a concentration of 10 μg/ml. After washing, an anti-human IgG Fab-specific HRP-conjugated secondary antibody was applied for detection. Palivizumab was included as the negative control. Optical densities were measured to generate binding curves from which EC50 values were derived. In the flow cytometry assay, MOLM-13 cells expressing human Siglec-15 and MOLM-13 wild-type cells (negative control) were incubated with titrated antibodies starting at 10 μg/ml. After incubation, cells were washed and incubated with an anti-human Fc-specific secondary antibody conjugated with a fluorescent marker. Flow cytometric analysis was conducted, and fluorescence intensity was used to calculate EC50 values, providing a quantitative assessment of the antibodies' cell surface binding efficacy. HEK293T cells were genetically engineered to express full-length mouse Siglec-15 and a truncated version of human Siglec-15 encompassing only domain 2. Antibodies were titrated starting at a concentration of 10 μg/ml and detected with an anti-human Fc-specific secondary antibody to detect bound primary antibodies. […] Results were analyzed and ranked based on the EC50 values.

B1: ZLA-1214-H05 (antibody, V domains shown)
VH: QVQLVQSGAEVKKPGASVKVSCKASGYTFTSYGISWVRQAPGQGLEWMGWISAYNGNTNYAQKLQGRVTMTTDTSTSTAYMELRSLRSDDTAVYYCARMSGYYGMDVWGQGTLVTVSS
VL: DIQLTQSPSSLSASVGDRVTITCQASQGISNYLNWYQQKPGKAPKLLIYDASNLETGVPSRFSGSGSGTDFTFTISSLQPEDIATYYCQQYDNLPLTFGGGTKLEIK
notes: Fully human, from phage display
binding result [1]: no binding
EC50 [2]: 0.593 µg/mL
EC50 [3]: 0.561 µg/mL
